Reference: patent US7507716B2, “Method for treating pain with prolactin antagonists” (Board of Regents, The University of Texas System, priority 2005, dated 2009)

How the values were obtained:
[1] = system: TG neurons; assay: Patch clamp, capsaicin-induced currents (Icap); type: cell-based, rat
Procedure: Since application of PRL rapidly increases capsaicin-induced calcium accumulation and neuropeptide release, the role of PRL in modulating capsaicin-induced currents (Icap) was examined. TRPV1 desensitization of cultured TG neurons was induced through the repeated application of 100 nM capsaicin to the cultures (Vellani et al., 2001; Bonnington and McNaughton, 2003). The sub-maximal concentration of capsaicin used was effective in inducing desensitization and permitted the investigation PRL-evoked re-sensitization or further sensitization of TRPV1. […] Data are presented as mean±SEM of PRL-treated ΔIcap (3rd Icap-2^ndIcap) normalized to vehicle treated ΔIcap, (n=8-12/group, *=p<0.05 and **=p<0.01; two-way ANOVA). […] Acutely dissociated TG neurons from female rats were locally pretreated with vehicle or PRL (40 nM) for 60 sec, washed for 60 sec and subjected to a single capsaicin pulse (40 sec, 0.1 nM-5 μM). Data are shown as mean±SEM (n=12-20/group, *=p<0.05 and ***=p<0.001 vehicle vs. PRL; two-way ANOVA). FIGS. 5C and 5D depict representative traces of Icap recordings from intact (FIG. 5C) and OVX (FIG. 5D) female rat TG neurons. Concentration of applied CAP and PRL are indicated. The duration CAP and PRL treatment was 30 sec and 60 sec, respectively. The magnitude of the second capsaicin-evoked inward currents (Icap) peak was subtracted from the third Icap peak to calculate the difference (ΔIcap). Data were normalized to the vehicle treated ΔIcap.
Patch Clamp Electrophysiology: All recordings were performed in whole-cell voltage-clamp (Vh=−60 mV) configuration. Recordings were acquired at 22-24° C. from the somata of neurons (15-45 pF) using an Axopatch200B amplifier and pCLAMP9.0 software (Axon Instruments, Union City, Calif.). Data were filtered at 0.5 kHz and sampled at 2 kHz. Borosilicate pipettes (Sutter, Novato, Calif.) were polished to resistances of 3-5 MΩ in pipette solution. Access resistance was compensated (40-80%) to 7-10 MΩ values when appropriate. Cell diameters were calculated using d=√[100*Cm/π], where d (μm) is cell diameter and Cm (pF) is membrane capacitance.
Standard external solution (SES) had the composition as described above. […] Drugs were applied using a fast, computer controlled pressure-driven 8-channel system (ValveLink8; AutoMate Scientific, San Francisco, Calif.).
FIG. 11B summarizes the effect of adding rhPRL on Icap of cultured TG neurons from male, female and OVX female rats. Number of recorded neurons and neurons in which effects were observed are indicated above the bars. The recordings were performed in whole-cell voltage clamp c(Vh=−60 mV) configuration. Solutions are SES and SIS.

[2] = system: TRPV1; assay: TRPV1 phosphorylation (32P incorporation, immunoprecipitation); type: cell-based, rat; conditions: PRL 40 nM 10 min
Procedure: The activity of TRPV1 is dependent upon its phosphorylation status. Hyperphosphorylation of TRPV1 is associated with increased responsiveness to capsaicin (Bhave et al., 2003; Mohapatra and Nau, 2005; Zhang et al., 2005; Mandadi et al., 2006). Since PRL-signaling through PRL-R is known to activate various intracellular kinases pathways, the effect of PRL on TRPV1 phosphorylation status in cultured TG neurons was assessed. Cultured TG neurons were incubated with PRL (40 nM) or vehicle for 10 min in the presence of radioactive phosphate (P^32-orthophosphate). Extracts of the radiolabelled TG cultures were prepared and subjected to immunoprecipated using an antibody that specifically recognizes TRPV1, and the resulting immune complexes were resolved by SDS-PAGE and prepared for immunoblot analysis. The blots were subjected to autoradiography to visualize radiolabelled P^32-TRPV1 and to determine its relative abundance in the presence of PRL. The resolved protein was then immunoblotted using an antibody raised against TRPV1 to ensure that the observed differences in radiolabelled TRPV1 abundance are not due to technical errors (e.g., unequal gel loading). […]
Autoradiography and Western blot results were scanned and quantified using NIH Image 1.62. […]

B1: PRL: Ovine PRL [oPRL-21, BIO] provided by NHPP; prolactin polypeptide hormone (protein, UniProt P01240 31-229, looked up)
Prolactin: TPVCPNGPGNCQVSLRDLFDRAVMVSHYIHNLSSEMFNEFDKRYAQGKGFITMALNSCHTSSLPTPEDKEQAQQTHHEVLMSLILGLLRSWNDPLYHLVTEVRGMKGVPDAILSRAIEIEEENKRLLEGMEMIFGQVIPGAKETEPYPVWSGLPSLQTKDEDARHSAFYNLLHCLRRDSSKIDTYLKLLNCRIIYNNNC
effect of PRL pretreatment on capsaicin potency (Icap) ([1]; PRL 40 nM 60 sec, single capsaicin pulse 0.1 nM-5 μM, female rat TG neurons): increased capsaicin potency | concentration of maximal potentiation of Icap ([1]; TRPV1-desensitized TG neurons from naive female rats, 100 nM capsaicin): 40 nM | EC50 ([1]; TRPV1-desensitized TG neurons from naive female rats, 100 nM capsaicin, read-out: EC50 of Icap sensitization): 0.27 nM | effect on Icap ([1]; rat OVX TG neurons): had no observed effect | TRPV1 phosphorylation status ([2]; TG neurons from OVX rats): no observable effect | phosphorylation state of TRPV1 ([2]; neurons from intact female rats): 150±13%
